Patent US20250270315A1 (ELPISCIENCE SUZHOU BIOPHARMA, published 2025)

T1: C57BL/6 mouse SIRPα ECD recombinant protein (6×His tagged) (C57BL/6 mouse, UniProt P97797 32-373)
T1 construct: extracellular domain; Bought from Biointron; not shown: 6×His tag
T1 sequence (looked up): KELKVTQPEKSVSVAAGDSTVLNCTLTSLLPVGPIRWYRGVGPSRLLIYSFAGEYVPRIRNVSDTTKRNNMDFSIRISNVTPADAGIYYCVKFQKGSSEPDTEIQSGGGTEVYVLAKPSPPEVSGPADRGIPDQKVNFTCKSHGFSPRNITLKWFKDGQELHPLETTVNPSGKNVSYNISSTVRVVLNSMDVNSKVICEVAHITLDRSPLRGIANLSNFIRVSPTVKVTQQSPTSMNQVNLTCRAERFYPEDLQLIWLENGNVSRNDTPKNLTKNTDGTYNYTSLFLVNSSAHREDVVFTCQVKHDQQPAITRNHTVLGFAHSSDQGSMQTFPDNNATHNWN

B1: 015c (antibody, V domains shown)
VH: EVQLQQSGVEVVQPGASVKLSCTASGFNIEAYYMHWVKQRTEQGLEWIGRIDPEDGESKYAPKFQGKATMTADTSSSTAYLQLSSLTSDDTAVYYCVRGSYEYWGQGTTLTVSS
VL: QIVLTQSPAIMSASPGEKVTLTCSASSSVSSSYLYWYQQKPGSSPKLWIYSTSNLASGVPPRFSGSGSGTSYSLTISSMQAEDAASYFCYQWSSYPYTFGGGTKLEIK
notes: also called chimeric antibody 015c
B2: hu1H9G4 (antibody, V domains shown)
VH: QVQLVQSGAEVKKPGASVKVSCKASGYTFTSYWITWVKQAPGQGLEWIGDIYPGSGSTNHIEKFKSKATLTVDTSISTAYMELSRLRSDDTAVYYCATGYGSSYGYFDYWGQGTLVTVSS
VL: DIQMTQSPSSLSASVGDRVTITCRASENIYSYLAWYQQKPGKAPKLLIYTAKTLAEGVPSRFSGSGSGTDFTLTISSLQPEDFATYYCQHQYGPPFTFGQGTKLELK
B3: 059c (antibody, V domains shown)
VH: QVQLQQSGPELVKPGASVKMSCKASGYTFSEYVLSWVKQRTGQGLEWIGEIYPGTITTYYNEKFKGKATLTADKSSNTAYIQLTSLTSEDSAVYFCGRFYDYDGGWFAYWGQGTLLTVSA
VL: ENVLTQSPEKMAVSLGQKVTMTCSASSSVSSSDLHWYQQKSGASPKPLIHGTSNLASGVPARFSGSGSGTSYSLTISSVEAEDAATYYCQQWSGYPWTFGGGTNLEIK
notes: also called chimeric antibody 059c
B4: 071c (antibody, V domains shown)
VH: QIQLVQSGPELKKPGETVKISCKASGYTFTTYGMSWVKQAPGKGLKWMVWINTYSGVPTYADDFQGRFAFSLETSASTSYLQINNLRNEDTATYFCARDPHYYGTSPAWFAYWGQGTLVTVSA
VL: DIVMTQSQKFMSTTIGDRVIITCKASQIVGIAVAWYQQKPGQSPKLLIYSASNRFTGVPDRFTGSGSGTDFTLTISNMQSEDLADYFCQQYSTYPFTFGSGTKLEIK
notes: also called chimeric antibody 071c

Key:
[1] = molecular target: T2, full length human SIRPα v1 stably expressed on CHOK1 or 293F cells (human, UniProt P78324 31-504); assay: FACS, CHOK1-hSIRPα v1 cells
T2 construct: whole, on cells; also called CHOK1-human SIRPα v1; CHOK1-hSIRPα v1
T2 sequence (P78324 31-504): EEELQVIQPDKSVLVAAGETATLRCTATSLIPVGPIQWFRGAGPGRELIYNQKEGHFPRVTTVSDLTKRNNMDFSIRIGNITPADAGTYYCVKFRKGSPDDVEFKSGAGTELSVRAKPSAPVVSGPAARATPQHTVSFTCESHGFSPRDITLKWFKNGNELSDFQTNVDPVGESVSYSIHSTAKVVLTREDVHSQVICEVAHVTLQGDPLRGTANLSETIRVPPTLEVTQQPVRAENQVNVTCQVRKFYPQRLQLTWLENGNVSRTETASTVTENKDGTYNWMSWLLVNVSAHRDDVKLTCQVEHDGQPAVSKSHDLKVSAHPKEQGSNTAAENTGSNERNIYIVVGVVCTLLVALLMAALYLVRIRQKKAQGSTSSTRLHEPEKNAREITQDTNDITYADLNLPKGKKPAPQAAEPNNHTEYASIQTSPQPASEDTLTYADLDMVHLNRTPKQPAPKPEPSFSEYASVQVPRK

[2] = molecular target: T3, human SIRPβL ECD recombinant protein (6×His tagged) (human, UniProt Q5TFQ8 30-371); assay: ELISA, hSIRPβI ECD
T3 construct: given variously as SIRPBL, SIRPBI and SIRPβI; Bought from Biointron; also called human SIRPBL ECD; human SIRPBI ECD
T3 sequence (Q5TFQ8 30-371 limits assumed): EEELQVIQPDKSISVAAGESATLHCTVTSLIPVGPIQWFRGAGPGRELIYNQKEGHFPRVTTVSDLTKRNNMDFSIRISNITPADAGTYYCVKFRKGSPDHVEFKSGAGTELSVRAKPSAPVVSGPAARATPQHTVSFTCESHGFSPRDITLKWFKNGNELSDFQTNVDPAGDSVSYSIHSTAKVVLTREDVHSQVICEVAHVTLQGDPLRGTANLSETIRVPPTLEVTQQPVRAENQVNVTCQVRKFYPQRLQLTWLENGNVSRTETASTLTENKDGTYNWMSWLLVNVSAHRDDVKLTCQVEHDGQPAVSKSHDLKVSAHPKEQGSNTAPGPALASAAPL
Text: (§1) Binding activity of the purified chimeric antibodies against SIRPβ and SIRPBI was detected by ELISA assay using recombinant proteins of human SIRPβ ECD (FIGS. 3A and 3B), human SIRPBI ECD (FIGS. 3D and 3E) and FACS assay using CHOK 1 cells stably expressing human SIRPB (FIG. 3C).

[3] = molecular target: T1, C57BL/6 mouse SIRPα ECD recombinant …; assay: ELISA, recombinant C57BL/6 mouse SIRPα ECD
Text: Species cross reactivity of purified chimeric antibodies was detected by ELISA assay using recombinant protein of C57BL/6 mouse SIRPα ECD (FIG. 5A) and FACS assay using CHOK 1 cells stably expressing cyno SIRPα (FIGS. 5B and 5C). All antibodies as tested bind to cyno SIRPα at different levels but have no species cross reactivity against C57BL/6 mouse SIRPα.

[4] = molecular target: T4, human SIRPγ stably expressed on 293F cells (human, UniProt Q9P1W8 29-387); assay: FACS, 293F-human SIRPγ cells
T4 construct: whole, on cells
T4 sequence (Q9P1W8 29-387): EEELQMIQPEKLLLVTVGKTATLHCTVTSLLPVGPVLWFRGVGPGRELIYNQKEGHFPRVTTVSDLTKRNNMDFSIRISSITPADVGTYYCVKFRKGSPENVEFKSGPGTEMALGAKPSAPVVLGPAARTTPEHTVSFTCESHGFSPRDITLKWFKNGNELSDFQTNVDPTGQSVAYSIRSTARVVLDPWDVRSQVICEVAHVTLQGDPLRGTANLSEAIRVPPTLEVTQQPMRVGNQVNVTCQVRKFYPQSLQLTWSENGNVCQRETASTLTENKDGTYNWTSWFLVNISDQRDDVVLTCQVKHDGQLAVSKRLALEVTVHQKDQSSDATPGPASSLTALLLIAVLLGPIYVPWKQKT

[5] = molecular target: Human SIRPα v1 (antigen of the Octet and Biacore affinity measurements) (human, UniProt P78324 31-370, limits assumed); assay: BLI (Octet), 1:1 binding model
Human SIRPα v1 (antigen of the Octet and Biacore affinity measurements), sequence (P78324 31-370 limits assumed): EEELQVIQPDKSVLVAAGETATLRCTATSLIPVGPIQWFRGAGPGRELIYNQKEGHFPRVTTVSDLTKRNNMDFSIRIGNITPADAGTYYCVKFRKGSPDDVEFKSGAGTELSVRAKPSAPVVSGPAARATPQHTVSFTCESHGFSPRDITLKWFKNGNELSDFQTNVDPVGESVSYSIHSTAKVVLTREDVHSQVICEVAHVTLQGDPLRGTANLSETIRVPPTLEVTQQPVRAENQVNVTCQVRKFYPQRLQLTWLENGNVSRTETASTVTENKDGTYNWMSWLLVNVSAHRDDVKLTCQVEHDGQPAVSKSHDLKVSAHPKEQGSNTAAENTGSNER
Experimental: The purified chimeric antibodies were characterized for binding affinity against human SIRPα v1, human SIRPα v2 using Bio-Layer Interferometry technology (Octet system). The association and dissociation curves were fit with 1:1 binding model, and the Ka/Kd/KD values for each antibody were calculated.

[6] = molecular target: full length human SIRPα v1 with a small beta-gal fragment (ED) fused to its C-terminal, expressed in K562 … (human, UniProt P78324 31-504); assay: cell-based or functional assay
full length human SIRPα v1 with a small beta-gal fragment (ED) fused to its C-terminal, expressed in K562 …, sequence (P78324 31-504): as the sequence (P78324 31-504) above

[7] = molecular target: T5, human SIRPα v2 ECD recombinant protein (tag not given) (human); assay: competitive ELISA, mFc-CD47 ECD on coated SIRPα v2 ECD
T5 construct: extracellular domain; also called ELISA microplate coated human SIRPα v2 ECD
Experimental: (§2) Competitive ELISA assay was used to determine whether the purified chimeric antibodies can block CD47 and SIRPα interaction. Briefly, antibody and mFc tagged human CD47 ECD recombinant protein were co-incubated with ELISA microplate coated human SIRPα v1 ECD (FIGS. 6A and 6B) or human SIRPα v2 ECD (FIGS. 7A and 7B) recombinant protein. After washing, HRP labeled anti-mouse Fc 2nd antibody (Sigma) was added and incubated at 37° C. for 1 hour. Then, 100 μl/well of TMB solution (Biotechnology) was added. After incubation for 15 minutes at room temperature, the reaction was stopped by the addition of 50 μl of 1N HCl. OD 450 nm was read. Blocking ratio was determined by blockade of human CD47 ECD recombinant protein binding to ELISA microplate coated human SIRPα ECD recombinant protein. Other than 005, all antibodies as tested can block interaction between human CD47 and different human SIRPα variants.

[8] = molecular target: T6, human SIRPβ ECD recombinant protein (6×His tagged) (human, UniProt O00241 30-371); assay: ELISA, hSIRPβ ECD
T6 construct: extracellular domain; Bought from Sino Biological; also called hSIRPβ ECD; not shown: 6×His tag
T6 sequence (O00241 30-371): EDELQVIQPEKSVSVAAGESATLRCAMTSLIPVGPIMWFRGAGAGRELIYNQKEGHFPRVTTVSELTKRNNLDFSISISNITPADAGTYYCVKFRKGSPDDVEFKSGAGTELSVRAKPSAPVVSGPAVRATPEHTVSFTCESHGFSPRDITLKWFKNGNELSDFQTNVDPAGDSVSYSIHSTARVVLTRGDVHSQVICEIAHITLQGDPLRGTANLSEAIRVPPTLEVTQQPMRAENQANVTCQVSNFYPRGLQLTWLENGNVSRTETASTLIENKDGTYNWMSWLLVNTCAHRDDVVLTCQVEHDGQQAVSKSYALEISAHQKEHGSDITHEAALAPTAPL
Text: as §1

[9] = molecular target: T7, human SIRPα v1 ECD recombinant protein (tag not given) (human, UniProt P78324 31-373); assay: competitive ELISA, mFc-CD47 ECD on coated SIRPα v1 ECD
T7 construct: extracellular domain; also called biotin labeled soluble human SIRPα v1 ECD recombinant protein; ELISA microplate coated human SIRPα v1 ECD
T7 sequence (P78324 31-373): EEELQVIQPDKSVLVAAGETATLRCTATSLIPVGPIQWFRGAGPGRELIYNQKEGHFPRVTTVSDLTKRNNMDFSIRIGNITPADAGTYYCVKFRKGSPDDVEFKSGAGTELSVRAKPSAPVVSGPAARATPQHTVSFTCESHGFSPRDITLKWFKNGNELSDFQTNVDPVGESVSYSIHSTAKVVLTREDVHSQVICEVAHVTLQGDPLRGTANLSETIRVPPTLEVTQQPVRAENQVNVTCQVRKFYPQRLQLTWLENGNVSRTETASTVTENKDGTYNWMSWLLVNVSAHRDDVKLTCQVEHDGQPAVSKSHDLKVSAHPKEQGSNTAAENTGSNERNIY
Experimental: as §2

[10] = molecular target: T8, human SIRPβ stably expressed on CHOK1 cells (human, UniProt O00241 30-398); assay: FACS, CHOK1-hSIRPβ cells
T8 construct: whole, on cells; also called CHOK1-human SIRPB; CHOK1-hSIRPβ
T8 sequence (O00241 30-398): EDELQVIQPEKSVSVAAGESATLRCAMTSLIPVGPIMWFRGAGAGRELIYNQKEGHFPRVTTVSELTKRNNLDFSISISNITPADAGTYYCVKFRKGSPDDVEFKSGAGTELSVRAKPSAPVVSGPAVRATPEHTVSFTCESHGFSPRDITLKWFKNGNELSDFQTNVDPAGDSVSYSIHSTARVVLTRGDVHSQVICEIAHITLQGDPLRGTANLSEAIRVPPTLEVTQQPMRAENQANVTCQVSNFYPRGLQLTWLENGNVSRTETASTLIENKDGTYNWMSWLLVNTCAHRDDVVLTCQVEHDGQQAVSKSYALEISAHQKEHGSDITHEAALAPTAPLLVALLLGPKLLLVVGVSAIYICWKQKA
Text: as §1

[11] = molecular target: T9, mFc tagged human SIRPα v1 ECD recombinant protein (human, UniProt P78324 31-373); assay: competitive ELISA binning, mFc-SIRPα v1 ECD; competitor 025c
T9 construct: extracellular domain; Bought from Biointron; not shown: mouse IgG Fc (mFc) tag
T9 sequence (P78324 31-373): as the sequence (P78324 31-373) above
Experimental: (§3) Competitive ELISA assay was used for epitope binning of purified chimeric antibodies. Briefly excessive competitor antibody and mFc tagged human SIRPα v1 ECD recombinant protein were co-incubated with ELISA microplate coated antibody. After washing, HRP labeled anti-mouse Fc 2nd antibody (Sigma) was added and incubated at 37° C. for 1 hour. Then, 100 μl/well of TMB solution (Biotechnology) was added. After incubation for 15 minutes at room temperature, the reaction was stopped by the addition of 50 μl of 1N HCl. OD 450 nm was read. Competition ratio was calculated. The antibodies that can compete each other for binding to SIRPα may have related binding epitopes.

[12] = molecular target: T2, full length human SIRPα v1 stably …; assay: competitive FACS, mFc-CD47 ECD on CHOK1-human SIRPα v1 cells
Experimental: Competitive FACS assay was also set up to further compare the blocking activity of the humanized antibodies and reference antibodies. Briefly antibody and mFc tagged human CD47 ECD recombinant protein were co-incubated with CHOK1 cells stably expressing human SIRPα v1 (FIG. 16A) or human SIRPα v2 (FIG. 16B). After washing, dye labeled anti-mouse Fc 2nd antibody (Sigma) was added and incubated at 37° C. for 1 hour. Fluorescence intensity was detected. Blocking ratio was determined by blockade of human CD47 ECD recombinant protein binding to SIRPα expressed CHOK1 cells. […] In particular, HEFLB doesn't work at all for human SIRPα v2.

[13] = molecular target: T10, cyno SIRPγ ECD recombinant protein (cyno); assay: ELISA, cyno SIRPγ ECD
T10 construct: extracellular domain

[14] = molecular target: T9, mFc tagged human SIRPα v1 ECD …; assay: competitive ELISA binning, mFc-SIRPα v1 ECD; competitor hu1H9G4
Experimental: as §3

[15] = molecular target: T9, mFc tagged human SIRPα v1 ECD …; assay: competitive ELISA binning, mFc-SIRPα v1 ECD; competitor 042c
Experimental: as §3

| Binder | EC50 [1] [nM] | TOP MFI [1] [MFI] | EC50 [2] [nM] | TOP OD450 [2] [OD450] | binding result [3] | EC50 [4] [nM] | TOP MFI [4] [MFI] | Kd [5] [nM] | koff [5] [s⁻¹] | kon [5] [M⁻¹ s⁻¹] | SHP-1 recruitment blocking, IC50 [6] [nM] | SHP-1 recruitment blocking, TOP blocking (%) [6] [%] | IC50 [7] [nM] | TOP blocking (%) [7] [%] | EC50 [8] [nM] | TOP OD450 [8] [OD450] | IC50 [9] [nM] | TOP blocking (%) [9] [%] | further results |
| --- | --- | --- | --- | --- | --- | --- | --- | --- | --- | --- | --- | --- | --- | --- | --- | --- | --- | --- | --- |
| B1 | 1.49 | 80000 | 0.4 | 3.1 | no binding | 0.09 | 3300 | 0.338 | 0.000303 | 897000 | 0.09 | 73.5 | 2.45 | 96.7 | 0.04 | 2.97 | 2.32 | 96.4 |  |
| B2 | 1.93 | 74600 | 0.24 | 2.74 |  | 0.52 | 2720 | 3.48 | 0.00277 | 795000 | 0.1 | 59.5 | 5.74 | 98.2 | 0.03 | 3.22 | 1.91 | 97.5 | EC50 [10]: 0.3 nM; TOP MFI [10]: 7140 MFI; % Competition [11]: 14.5%; IC50 [12]: 0.44 nM; TOP blocking (%) [12]: 97.2%; EC50 [13]: 0.48 nM; TOP OD450 [13]: 1.81 OD450; % Competition [14]: 90.5%; % Competition [15]: 82.6% |
| B3 | 1.45 | 69800 | 0.7 | 3.35 | no binding | 34.1 | 2860 | 2.25 | 0.00213 | 944000 | 0.07 | 66.9 | 54.1 | 84.4 | 0.03 | 2.75 | 2.63 | 97 |  |
| B4 | 2.6 | 76500 | 0.3 | 2.66 | no binding |  |  | 5.97 | 0.00327 | 548000 | 2.97 | 44.5 | 5.1 | 76.3 | 1.53 | 2.98 | 2.86 | 94.1 |  |
